Measurements taken from paper PMC8832513.

Target: RXFP1 construct pVL-11 (FLAG-eGFP-M82-S707-Avi) (human) (UniProt Q9HBX9)
Assay: SPR; receptor constructs captured via biotinylated Avi-tag on an SA chip (3000-5000 RU), Biacore T200, 20°C; running buffer 20 mM HEPES pH 7.5, 150 mM NaCl, 0.01% BSA, 0.1% DDM, 0.01% CHS; relaxin injected at 0.41-100 nM; kinetic fits; triplicates

UniProt Q9HBX9, sequence (Q9HBX9 82-707): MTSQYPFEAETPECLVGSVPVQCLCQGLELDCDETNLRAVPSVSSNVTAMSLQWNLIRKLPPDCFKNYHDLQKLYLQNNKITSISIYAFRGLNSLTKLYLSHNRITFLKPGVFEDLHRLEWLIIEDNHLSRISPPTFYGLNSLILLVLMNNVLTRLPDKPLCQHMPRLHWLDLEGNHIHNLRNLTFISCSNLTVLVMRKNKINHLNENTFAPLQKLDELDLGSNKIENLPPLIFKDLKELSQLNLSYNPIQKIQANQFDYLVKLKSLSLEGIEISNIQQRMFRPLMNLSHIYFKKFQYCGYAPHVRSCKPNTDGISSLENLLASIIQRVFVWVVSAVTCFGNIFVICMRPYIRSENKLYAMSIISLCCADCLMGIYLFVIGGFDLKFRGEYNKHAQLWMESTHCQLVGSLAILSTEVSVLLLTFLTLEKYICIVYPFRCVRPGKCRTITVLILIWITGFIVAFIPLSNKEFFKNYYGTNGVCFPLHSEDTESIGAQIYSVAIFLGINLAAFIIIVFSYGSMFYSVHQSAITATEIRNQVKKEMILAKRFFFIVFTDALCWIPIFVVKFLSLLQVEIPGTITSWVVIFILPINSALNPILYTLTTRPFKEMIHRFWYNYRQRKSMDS

Relaxin H2 (human) (ligand)
Kd: 20 nM
